B1: Azoarcus group I ribozyme (parent)
chain: GUGCCUUGCGCCGGGAAACCACGCAAGGGAUGGUGUCAAAUUCGGCGAAACCUAAGCGCCCGCCCGGGCGUAUGGCAACGCCGAGCCAAGCUUCGGCGCCUGCGCCGAUGAAGGUGUAGAGACUAGACGGCACCCACCUAAGGCAAACGCUAUGGUGAAGGCAUAGUCCAGGGAGUGGCGAAAGUCACACAAACCGG

Variants of: B1
Experiment: reverse-splicing fitness (ratio to wild type); higher = more active; in vitro selection; Mg2+ level not given
Method in brief: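 An in vitro group I ribozyme library with randomized positions was T7-transcribed and gel-purified. In triplicate, 10 pmol RNA in EPPS pH 7.5 was reacted with 50 pmoles of a 30-nt RNA substrate for 1 h at 37 °C across several added MgCl2 levels (1–48 mM), then stopped with EDTA. Products were reverse transcribed from a substrate-complementary primer, PCR-amplified and sequenced (HiSeq 4000). Fitness is a variant's read proportion after selection over that before, normalised to wild type.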

Variant	reverse-splicing fitness
C82G A111C A145U C150G	0.0245
C82G A111C A145U C150U	0.172
C82G A111C A145G C150U U176C	0.11
C82G A111C A145G C150U U176G	0.0306
C82G A111C A145G C150U U176A	0.0896
C82G A111C A145C C150U C169U U176G	0.00739
C82G A111C A145C C150U C169U U176C	0.0131
C82G A111C A145C C150U C169U U176A	0.013
C82G A111C A120U C150A C169A U176C	0.00453
C82G A111C A120U C150A C169A U176G	0.00289
C82G A111C A120U C150A C169A U176A	0.00668
C82G A111C A145G C150A C169A U176C	0.0204
C82G A111C A145G C150A C169A U176A	0.0179
C82G A111C A145G C150A C169A U176G	0.0086
C82G A111C A145C C150G C169G	0.00675
C82G A111C A145C C150G C169A	0.00941
C82G A111C A145C C150G C169U	0.00892
C82G A111C A120U A145G C169U U176A	0.00525
C82G A111C A120U A145G C169U U176G	0.0022
C82G A111C A120U A145G C169U U176C	0.00468
C82G A111C A120U C169U U176G	0.00247

Variant	reverse-splicing fitness
C82G A111C A120U C169U U176C	0.00475
C82G A111C A120U C169U U176A	0.00632
C82G A111C A145G C150G C169U U176C	0.0116
C82G A111C A145G C150G C169U U176A	0.0103
C82G A111C A145G C150G C169U U176G	0.00728
C82G A111C A120U C150U U176G	0.00397
C82G A111C A120U C150U U176A	0.00878
C82G A111C A120U C150U U176C	0.0132
C82G A111C A120U A145G C169U	0.00527
C82G A111C A120U A145G C169G	0.00473
C82G A111C A120U A145G C169A	0.00335
C82G A111C A145G C150U C169A	0.0097
C82G A111C A145G C150U C169U	0.0115
C82G A111C A145G C150U C169G	0.00884
C82G A111C A145U C150U C169U	0.0121
C82G A111C A145U C150U C169G	0.00905
C82G A111C A145U C150U C169A	0.00854
C82G A111C A120U A145U C169U	0.00412
C82G A111C A120U A145U C169A	0.00231
C82G A111C A120U A145U C169G	0.00373
C82G A111C A145G C150U C169G U176C	0.0159

Variant	reverse-splicing fitness
C82G A111C A145G C150U C169G U176G	0.00611
C82G A111C A145G C150U C169G U176A	0.0107
C82G A111C A145U C150A C169A U176A	0.0135
C82G A111C A145U C150A C169A U176C	0.0134
C82G A111C A145U C150A C169A U176G	0.00941
C82G A111C A145C C169G U176G	0.00663
C82G A111C A145C C169G U176A	0.0274
C82G A111C A145C C169G U176C	0.0197
C82G A111C A120U C150G U176G	0.00279
C82G A111C A120U C150G U176C	0.00675
C82G A111C A120U C150G U176A	0.00422
C82G A111C A145U C150U C169G U176C	0.0196
C82G A111C A145U C150U C169G U176A	0.0124
C82G A111C A145U C150U C169G U176G	0.00868
C82G A111C A145G C150U C169U U176C	0.0127
C82G A111C A145G C150U C169U U176A	0.0129
C82G A111C A145G C150U C169U U176G	0.0071
C82G A111C A145G C150A U176A	0.0244
C82G A111C A145G C150A U176G	0.0116
C82G A111C A145G C150A U176C	0.0396
C82G A111C A120U A145U C150U C169G U176A	0.00347

Variant	reverse-splicing fitness
C82G A111C A120U A145U C150U C169G U176G	0.00273
C82G A111C A120U A145U C150U C169G U176C	0.00346
C82G A111C A120U U176A	0.0113
C82G A111C A120U U176G	0.00466
C82G A111C A120U U176C	0.0175
C82G A111C A120U A145U U176A	0.0115
C82G A111C A120U A145U U176C	0.0197
C82G A111C A120U A145U U176G	0.00533
C82G A111C A145C C150A C169U U176G	0.0092
C82G A111C A145C C150A C169U U176C	0.0122
C82G A111C A145C C150A C169U U176A	0.0135
C82G A111C A145C C169A U176G	0.00713
C82G A111C A145C C169A U176A	0.0184
C82G A111C A145C C169A U176C	0.015
C82G A111C A120U A145U C150A C169A	0.00247
C82G A111C A120U A145U C150A C169G	0.00295
C82G A111C A120U A145U C150A C169U	0.00311
C82G A111C A120U C150A C169U U176A	0.00691
C82G A111C A120U C150A C169U U176C	0.00469
C82G A111C A120U C150A C169U U176G	0.00298
C82G A111C A145C C150U C169A	0.00808
